Data as given in patent US20050048070A1 (published 2005).

Experiments:
Assay in all cases: summary map of the heterotypic association assay: GST deletion protein incubated with the complementary keratin, then stained with COU-1
[1] = target: T1, K8(130-483)/intact K18 heterotypic complex
T1 construct: one member of the group m25; not shown: GST fusion partner (modified pGEX-2T) on the keratin proteins
T1 K8 fragment: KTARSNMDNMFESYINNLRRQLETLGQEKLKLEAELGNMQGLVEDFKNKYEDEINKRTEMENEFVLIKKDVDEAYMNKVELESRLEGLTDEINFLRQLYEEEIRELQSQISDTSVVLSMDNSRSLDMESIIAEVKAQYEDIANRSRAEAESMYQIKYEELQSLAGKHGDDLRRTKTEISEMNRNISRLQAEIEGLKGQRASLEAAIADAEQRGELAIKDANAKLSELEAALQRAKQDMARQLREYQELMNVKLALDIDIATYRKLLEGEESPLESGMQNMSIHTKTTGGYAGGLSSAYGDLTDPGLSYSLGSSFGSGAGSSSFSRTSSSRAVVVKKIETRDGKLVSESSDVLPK
T1 K18 intact: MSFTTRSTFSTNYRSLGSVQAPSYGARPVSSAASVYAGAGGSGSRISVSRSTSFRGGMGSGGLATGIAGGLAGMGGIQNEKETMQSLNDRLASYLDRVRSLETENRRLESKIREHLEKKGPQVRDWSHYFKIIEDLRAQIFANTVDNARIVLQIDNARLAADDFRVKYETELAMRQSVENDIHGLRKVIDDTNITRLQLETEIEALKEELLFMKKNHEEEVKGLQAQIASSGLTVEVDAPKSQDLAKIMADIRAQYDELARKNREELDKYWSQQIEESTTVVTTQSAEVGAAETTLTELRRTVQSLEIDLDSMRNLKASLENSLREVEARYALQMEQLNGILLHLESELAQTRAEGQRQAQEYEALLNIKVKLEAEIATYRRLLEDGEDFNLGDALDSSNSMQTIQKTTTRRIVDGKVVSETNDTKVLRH

[2] = target: T2, K8(240-483)/intact K18 heterotypic complex
T2 construct: one member of the group m25; not shown: N-terminal GST carrier (modified pGEX-2T) and its linker on the keratin constructs
T2 chain 1: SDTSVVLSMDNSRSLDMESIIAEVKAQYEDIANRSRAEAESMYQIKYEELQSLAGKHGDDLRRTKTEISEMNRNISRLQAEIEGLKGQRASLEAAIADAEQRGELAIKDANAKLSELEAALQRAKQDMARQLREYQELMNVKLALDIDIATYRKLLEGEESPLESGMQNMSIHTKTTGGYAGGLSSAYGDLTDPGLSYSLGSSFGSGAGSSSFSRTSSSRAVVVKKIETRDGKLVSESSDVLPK
T2 chain 2: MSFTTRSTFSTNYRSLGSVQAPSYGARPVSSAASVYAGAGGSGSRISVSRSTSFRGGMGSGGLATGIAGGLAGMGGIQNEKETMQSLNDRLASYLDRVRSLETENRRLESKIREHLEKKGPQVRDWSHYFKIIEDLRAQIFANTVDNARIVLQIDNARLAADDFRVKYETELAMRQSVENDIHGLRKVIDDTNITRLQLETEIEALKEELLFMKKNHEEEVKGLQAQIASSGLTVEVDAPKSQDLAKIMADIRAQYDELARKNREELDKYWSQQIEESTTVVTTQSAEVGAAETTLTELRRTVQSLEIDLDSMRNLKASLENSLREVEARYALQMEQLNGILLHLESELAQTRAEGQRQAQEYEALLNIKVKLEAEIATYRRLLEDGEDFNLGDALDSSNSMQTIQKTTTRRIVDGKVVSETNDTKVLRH

[3] = target: T3, K8(300-483)/intact K18 heterotypic complex
T3 construct: one member of the group m25; not shown: N-terminal GST carrier (modified pGEX-2T) and its linker on the keratin constructs
T3 chain 1: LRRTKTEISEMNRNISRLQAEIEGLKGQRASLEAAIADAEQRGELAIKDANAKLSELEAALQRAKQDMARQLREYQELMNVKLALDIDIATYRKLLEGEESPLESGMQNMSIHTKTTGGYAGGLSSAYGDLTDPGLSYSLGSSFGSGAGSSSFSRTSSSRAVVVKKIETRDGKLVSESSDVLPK
T3 chain 2: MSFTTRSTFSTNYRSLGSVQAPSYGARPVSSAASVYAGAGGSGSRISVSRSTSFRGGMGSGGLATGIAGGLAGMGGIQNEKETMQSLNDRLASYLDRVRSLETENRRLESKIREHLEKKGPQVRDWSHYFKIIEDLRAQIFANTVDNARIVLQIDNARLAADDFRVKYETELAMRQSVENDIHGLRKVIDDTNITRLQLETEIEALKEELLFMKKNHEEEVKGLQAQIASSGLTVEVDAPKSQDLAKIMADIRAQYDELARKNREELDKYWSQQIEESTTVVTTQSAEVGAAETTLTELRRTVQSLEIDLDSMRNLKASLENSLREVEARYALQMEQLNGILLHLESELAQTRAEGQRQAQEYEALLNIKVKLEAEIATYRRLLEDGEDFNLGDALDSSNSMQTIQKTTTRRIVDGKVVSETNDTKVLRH

[4] = target: T4, K8(343-483)/intact K18 heterotypic complex
T4 construct: one member of the group m25; not shown: N-terminal GST carrier (modified pGEX-2T) and its linker on the keratin constructs
T4 chain 1: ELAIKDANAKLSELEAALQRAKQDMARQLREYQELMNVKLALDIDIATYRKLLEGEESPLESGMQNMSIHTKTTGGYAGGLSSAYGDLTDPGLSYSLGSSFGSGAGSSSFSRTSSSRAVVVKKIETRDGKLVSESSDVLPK
T4 chain 2: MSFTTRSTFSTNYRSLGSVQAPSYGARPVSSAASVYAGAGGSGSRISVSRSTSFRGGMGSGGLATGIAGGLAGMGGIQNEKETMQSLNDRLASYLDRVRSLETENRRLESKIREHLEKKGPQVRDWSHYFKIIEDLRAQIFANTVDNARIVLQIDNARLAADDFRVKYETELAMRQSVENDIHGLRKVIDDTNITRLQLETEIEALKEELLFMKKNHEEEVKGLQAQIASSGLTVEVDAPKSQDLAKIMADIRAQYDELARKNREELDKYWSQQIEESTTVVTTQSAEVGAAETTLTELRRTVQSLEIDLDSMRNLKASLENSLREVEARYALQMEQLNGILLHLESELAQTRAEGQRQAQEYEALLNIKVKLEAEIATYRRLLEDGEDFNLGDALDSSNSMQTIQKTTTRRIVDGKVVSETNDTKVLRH

[5] = target: T5, K8(1-65)/intact K18 heterotypic complex (human, UniProt P05787 2-66; P05783 2-430)
T5 construct: Heterotypic complex of two GST fusion proteins; not shown: glutathione S-transferase (GST) fusion partner, modified pGEX-2T vector
T5 sequence 1: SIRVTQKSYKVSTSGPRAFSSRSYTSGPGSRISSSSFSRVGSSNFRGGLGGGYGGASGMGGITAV
T5 sequence 2: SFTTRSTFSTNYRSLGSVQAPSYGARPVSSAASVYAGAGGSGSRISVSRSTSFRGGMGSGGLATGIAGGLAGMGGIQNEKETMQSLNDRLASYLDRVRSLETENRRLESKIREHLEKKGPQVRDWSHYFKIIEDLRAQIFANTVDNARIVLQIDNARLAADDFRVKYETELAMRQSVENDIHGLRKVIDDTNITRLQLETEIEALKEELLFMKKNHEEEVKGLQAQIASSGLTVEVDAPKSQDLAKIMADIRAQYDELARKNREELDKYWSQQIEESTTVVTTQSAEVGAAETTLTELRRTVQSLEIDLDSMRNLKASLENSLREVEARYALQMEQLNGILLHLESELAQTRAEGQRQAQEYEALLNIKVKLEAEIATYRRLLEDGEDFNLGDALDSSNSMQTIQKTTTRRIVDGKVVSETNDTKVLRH

[6] = target: T6, K8(1-85)/intact K18 heterotypic complex (human, UniProt P05787 2-86; P05783 2-430)
T6 construct: Heterotypic complex of two GST fusion proteins; also called intact K8(1-85)/intact K18; not shown: glutathione S-transferase (GST) fusion partner, modified pGEX-2T vector
T6 chain 1: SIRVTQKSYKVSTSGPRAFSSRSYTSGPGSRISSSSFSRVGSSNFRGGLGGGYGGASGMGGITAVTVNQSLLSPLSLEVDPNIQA
T6 chain 2: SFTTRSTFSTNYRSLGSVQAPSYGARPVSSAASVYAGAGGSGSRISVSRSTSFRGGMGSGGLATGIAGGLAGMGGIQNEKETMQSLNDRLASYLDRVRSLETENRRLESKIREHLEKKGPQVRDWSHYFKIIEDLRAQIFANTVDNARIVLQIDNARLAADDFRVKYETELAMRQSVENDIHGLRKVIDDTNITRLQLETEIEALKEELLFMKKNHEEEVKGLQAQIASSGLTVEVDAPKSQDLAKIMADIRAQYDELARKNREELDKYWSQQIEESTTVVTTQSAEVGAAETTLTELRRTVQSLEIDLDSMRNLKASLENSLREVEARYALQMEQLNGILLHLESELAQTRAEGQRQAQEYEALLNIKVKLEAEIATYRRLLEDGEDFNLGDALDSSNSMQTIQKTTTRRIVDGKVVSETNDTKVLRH

B1: human monoclonal IgM antibody COU-1 (antibody, V domains shown)
VH: GAEVKKPGASVKVSCKASDYTFSSYYMHWVRQAPGQGLEWMGIINPSGGSTSYAQKFQGRVTMTRDTSTNTVYMELSSLRSEDTAVYYCARDQVVVAATLSNYGMDVWGQGTTVTVSS
VL: ELTQSPGTLSLSPGERATLSCRASQSVSSSYLAWYQQKPGQAPRLLIYDASNRATGIPARFSGSGSGTDFTLTISSLEPEDFAVYYCQQGTNWGIAFGQGTRLDIKR
notes: Human IgM with kappa light chain, secreted by hybridoma B9165 (ECACC 87040201), purified from culture supernatant; also called HMab COU-1; HuMab COU-1
B1: no binding (tested: 5 µg/ml COU-1 (P-0285)) [1]; no binding (tested: 5 µg/ml COU-1 (P-0285)) [2]; no binding (tested: 5 µg/ml COU-1 (P-0285)) [3]. B1: no binding (tested: 5 µg/ml COU-1 (P-0285)) [4]; no binding (tested: 5 µg/ml COU-1 (P-0285)) [5]; no binding (tested: 5 µg/ml COU-1 (P-0285)) [6].
